Test [1] relates to NCI-N87 gastric cancer xenograft. Description: In vivo efficacy study in NCI-N87 xenograft model. Also noted: species or system mice. The conditions noted are these: single intravenous dose 2 mg/kg (53 nmol drug/kg), day 33. The source says: (§1) The ADC non-binding control was an anti-CD19 ADC (DAR 2.0) composed of the same linker-drug combination as ADC-3.
A further test relates to Colo-205 xenograft. The conditions noted are these: CB17 SCID mice, single intravenous dose 2 mg/kg (53 nmol drug/kg), calculation based on day 16. As to the method: Mice were subcutaneously inoculated into the right flank with 5×10^6 Colo-205 cells in 0.2 mL of DPBS mixed 1:1 with BD Matrigel. […] Tumour size was measured thrice weekly in two dimensions using a calliper, and the volume was expressed in mm^3 using the formula: V=0.5 a×b^2 where a and b are the long and short diameters of the tumour, respectively (see FIGS. 17A, 18 A and 19 A). The tumour size was then used for calculations of TGI (%) values (see Table 5). TGI, representing antitumor effectiveness, were calculated using the formula TGI (%)=[1-(Vtreat-t−Vtreat-1)/(Vcontrol-t−Vcontrol-1)]×100, where Vtreat-1 and Vcontrol-1 are the mean volumes of the treated and control groups on grouping day; Vtreat-t and Vcontrol-t are the mean volumes of the treated and control groups on a given day. Animals were euthanized when tumour volumes reached 2000 mm^3. Body weight was also measured thrice weekly as a measure of compound toxicity (see FIGS. 17 B, 18 B and 19 B).

In another test the test system is Colo-205 cells. As to the kind of experiment: Cell Titre-Glo (CTG) in vitro activity assay, Colo-205. The test is classed as cell-based, human. The conditions noted are these: 72 h, 10% FBS (FIG. 16).
Excerpt: as §1

A further test relates to BxPC3 xenograft. As to the kind of experiment: In vivo efficacy study in BxPC3 xenograft model. Details: species or system mice. As to the method: Conjugate doses of 0.4 mg/kg (5.3 nmol of conjugated drug/kg), 1 mg/kg (13 nmol of conjugated drug/kg) for ADC-2 and ADC-3, and 0.2 mg/kg (5.3 nmol of conjugated drug/kg) and 0.5 mg/kg (13 nmol of conjugated drug/kg) for Cantuzumab ravtansine were used.

Test [2] deals with CanAg antigen (human) (UniProt P15941). As to the kind of experiment: flow cytometry on CanAg positive Colo205 cells, AF488 anti-human IgG secondary, MFI curve.
Test [3] shares this target. As to the kind of experiment: flow cytometry on N87 cells, 20 µg/mL PE conjugate, Quantibrite PE beads.
Test [4] has the same target. Description: flow cytometry on SNU-16 cells, 20 µg/mL PE conjugate, Quantibrite PE beads. For orientation: Flow cytometry measures light scatter and fluorescence of single cells or particles in a stream.
Test [5] has the same target. Description: flow cytometry on HT-29 cells, 20 µg/mL PE conjugate, Quantibrite PE beads.
Test [6] shares this target. As to the kind of experiment: flow cytometry on Colo205 cells, 20 µg/mL PE conjugate, Quantibrite PE beads.
The target is the same in test [7]. Description: flow cytometry on BxPC3 cells, 20 µg/mL PE conjugate, Quantibrite PE beads.

Residue numbers refer to the chain shown, from its start.

B1: Cantuzumab ravtansine: humanised ADC targeting CanAg: cantuzumab (HuC242) conjugated to the cytotoxic maytansinoid drug ravtansine; DAR 4.0 (conjugate, chains of the INN, looked up)
VH: QVQLVQSGAEVKKPGETVKISCKASDYTFTYYGMNWVKQAPGQGLKWMGWIDTTTGEPTYAQKFQGRIAFSLETSASTAYLQIKSLKSEDTATYFCARRGPYNWYFDVWGQGTTVTVSS
VL: DIVMTQSPLSVPVTPGEPVSISCRSSKSLLHSNGNTYLYWFLQRPGQSPQLLIYRMSNLVSGVPDRFSGSGSGTAFTLRISRVEAEDVGVYYCLQHLEYPFTFGPGTKLELK
modifications: ravtansine maytansinoid payload, DAR 4.0
notes: humanised ADC targeting CanAg: cantuzumab (HuC242) conjugated to the cytotoxic maytansinoid drug ravtansine; DAR 4.0
Regarding B1, the “TGI [%] at 33 day” value in test [1] is recorded as 43%. Also, the “TGI [%] at 15 day” value in the test on Colo-205 xenograft is 40%. Besides, in the test on Colo-205 cells, the cells killed worked out at 75%. Moreover, in the test on BxPC3 xenograft (0.2 mg/kg and 0.5 mg/kg, in comparison to ADC-2 and ADC-3 at the same conjugated drug doses (FIG. 20)), the “anti-tumour response (in words)” value is “weak anti-tumour response”. In the test on BxPC3 xenograft (2 mg/kg (53 nmol drug/kg)), the “time at which tumour started to regrow” value was > 32 days. Also, the “tumour inhibition (in words)” value in the test on BxPC3 xenograft (2 mg/kg (53 nmol drug/kg) (FIG. 21 A)) is on record as “complete tumour inhibition”. Further, the “TGI [%] at 29 or 32* day” value in the test on BxPC3 xenograft (single intravenous dose 0.2 mg/kg (5.3 nmol drug/kg), day 29) is 24.3%; in the test with BxPC3 xenograft (single intravenous dose 0.5 mg/kg (13 nmol drug/kg), day 29), 34.6%; in the test with BxPC3 xenograft (single intravenous dose 2 mg/kg (53 nmol drug/kg), day 32), 104* %.

B2: HC1 + LC1 (antibody, human IgG1, kappa, V domains shown)
VH: QVQLVQSGAEVKKPGASVKVSCKASDYTFTYYGINWVRQAPGQGLEWMGWIDTTTGEPNYAQKLQGRVTFTLDTSASTAYMELRSLRSDDTAVYYCARRGPYNWYFDVWGQGTLVTVSS
VL: DIVMTQTPLSLPVTPGEPASISCRSSKSLLHSNGNTYLYWYLQKPGQSPQLLIYRMSNRASGVPDRFSGSGSGTDFTLKISRVEAEDVGVYYCLQHLEYPFTFGPGTKVDIKR
As usually defined, the EC50 is the concentration needed to bring the measured effect to its halfway point. The low end stands for a more potent agent, the high end for a less potent agent. In turn, B2 gave an EC50 with CanAg antigen (human) [2] of 0.274 µg/mL.

B3: HC3 + LC3 (antibody, human IgG1, kappa, V domains shown)
VH: B2 VH with P41T, N59T, L64F, D73E, A76I, R84S, D89E, Q111A
VL: B2 VL with P12S, E17Q, R24K, R59L, A60F
For B3, the 50% effective concentration (EC50) in the test with CanAg antigen (human) [2] was 0.294 µg/mL.

B4: HC2 + LC3 (antibody, human IgG1, kappa, V domains shown)
VH: B2 VH with I34M, N59S, L64F, A79V, R84S, D89E
VL: B2 VL with P12S, E17Q, R24K, R59L, A60F
In turn, B4 yielded an EC50 with CanAg antigen (human) [2] of 0.354 µg/mL.

B5: HC3 + LC2 (antibody, human IgG1, kappa, V domains shown)
VH: B2 VH with P41T, N59T, L64F, D73E, A76I, R84S, D89E, Q111A
VL: B2 VL with T7S, R59L
For the molecule B5, the 50% effective concentration (EC50) in the test with CanAg antigen (human) [2] was 0.327 µg/mL.

B6: HC2 + LC1 (antibody, human IgG1, kappa, V domains shown)
VH: B2 VH with I34M, N59S, L64F, A79V, R84S, D89E
VL: B2 VL
On to B6, for which the 50% effective concentration (EC50) in the test with CanAg antigen (human) [2] amounted to 0.351 µg/mL.

B7: Phycoerythrin (PE)-conjugated HC1LC1 antibody (antibody, V domains shown)
VH: B2 VH
VL: B2 VL
modifications: R-phycoerythrin conjugated by Lightning-Link kit; sites not stated
As for B7, the PE molecules per cell (PE molecules per cell) with CanAg antigen (human) [3] was 2570; with CanAg antigen (human) [4], 1.15e+07; with CanAg antigen (human) [5] it was 626000; with CanAg antigen (human) [6] it was 2.61e+06; with CanAg antigen (human) [7], 75300.

B8: HC1 + LC2 (antibody, human IgG1, kappa, V domains shown)
VH: B2 VH
VL: B2 VL with T7S, R59L
B8 yielded a half-maximal effective concentration (EC50) with CanAg antigen (human) [2] of 0.268 µg/mL.

B9: HC1 + LC3 (antibody, human IgG1, kappa, V domains shown)
VH: B2 VH
VL: B2 VL with P12S, E17Q, R24K, R59L, A60F
As to B9, in the test with CanAg antigen (human) [2], the concentration for a half-maximal effect (EC50) stood at 0.305 µg/mL.

B10: HC3 + LC1 (antibody, human IgG1, kappa, V domains shown)
VH: B2 VH with P41T, N59T, L64F, D73E, A76I, R84S, D89E, Q111A
VL: B2 VL
With B10, the EC50 with CanAg antigen (human) [2] worked out at 0.266 µg/mL.

B11: HC2 + LC2 (antibody, human IgG1, kappa, V domains shown)
VH: B2 VH with I34M, N59S, L64F, A79V, R84S, D89E
VL: B2 VL with T7S, R59L
In turn, B11 showed an EC50 with CanAg antigen (human) [2] of 0.408 µg/mL.

(Values after US20250213711A1, “ANTI-CANAG ANTIBODY CONJUGATE” (IKSUDA THERAPEUTICS LIMITED, priority 2022, published 2025).)
